From the supplement of paper PMC7877785
± gives the uncertainty stated by the source.

Assay: self-splicing fitness, log relative to wild type (ln ratio); higher = more splicing; Tetrahymena group I intron in knt gene, E. coli kanamycin selection, DiMSum; sequences stand for … in CUCUCU…GGAGGGAAAAGUUAUCAGGCAUGCACCUGGUAGCUAGUCUUUAAACCAAUAGAUUGCAUCGGUUUAAAAGGCAAGACCGUCAAAUUGCGGGAAAGGGGUCAACAGCCGUUCAGUACCAAGUCUCAGGGGAAACUUUGAGAUGGCCUUGCAAAGGGUAUGGUAAUAAGCUGACGGACAUGGUCCUAACCACGCAGCCAAGUCCUAAGUCAACAGAUCUUCUGUUGAUAUGGAUGCAGUUCACAGACUAAAUGUCGGUCGGGGAAGAUGUAUUCUUCUCAUAAGAUAUAGUCGGACCUCUCCUUAAUGGGAGCUAGCGGAUGAAGUGAUGCAACACUGGAGCCGCUGGGAACUAAUUUGUAUGCGAAAGUAUAUUGAUUAGUUUUGGAGUACUCGUGGUCG
Outline: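 Six replicate transformations of E. coli BL21(DE3) with a pET-22b(+) library were grown overnight at 37°C or 30°C. The library randomised all eight P1ex-region intron nucleotides, the intron lying in the knt kanamycin-resistance gene, and plates were LB agar with or without 25 μg/mL kanamycin plus 100 μg/mL carbenicillin, 50 μM IPTG and 0.2% rhamnose. Pooled colonies were amplicon-sequenced on an Illumina HiSeq 2500, and fitness is the DiMSum error-weighted combination of wild-type-normalised replicate fold changes, kanamycin versus none.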

Row | Sequence | self-splicing fitness (ln) (30 °C) | self-splicing fitness (ln) (37 °C)
1 | GGGAAGCAAUAUUACGAUAU | -0.722 ± 0.15 | -0.709 ± 0.23
2 | CUGGAGCAAUAUUACGACCA | -1.68 ± 0.31 | -1.61 ± 0.38
3 | UUGCAGCAAUAUUACGAUCG | -1.13 ± 0.1 | -0.473 ± 0.14
4 | CUGCAGCAAUAUUACGGAGU | -3.05 ± 0.14 | -1.65 ± 0.13
5 | GUCUAGCAAUAUUACGUGCU | -3.08 ± 0.23 | -1.87 ± 0.39
6 | UCGCAGCAAUAUUACGGUAC |  | -2.21 ± 0.31
7 | AACUAGCAAUAUUACGGACA | -0.804 ± 0.15 | -0.48 ± 0.13
8 | CUUUAGCAAUAUUACGAGCG | -1.16 ± 0.073 | 0.0581 ± 0.12
9 | UUUCAGCAAUAUUACGAGCA | -1.41 ± 0.14 | -0.671 ± 0.12
10 | ACCCAGCAAUAUUACGCGCC | -0.907 ± 0.064 | 0.136 ± 0.094
11 | UCGAAGCAAUAUUACGUCCU | -0.664 ± 0.12 | -0.253 ± 0.15
12 | CUACAGCAAUAUUACGACGA | -2.65 ± 0.15 | -2.02 ± 0.18
13 | CCACAGCAAUAUUACGUAAC | -3.47 ± 0.2 | -1.35 ± 0.16
14 | AUAAAGCAAUAUUACGCCCC | -0.123 ± 0.16 | 0.0897 ± 0.24
15 | CGGUAGCAAUAUUACGCGUU | -3.55 ± 0.31 | -2.13 ± 0.21
16 | AGCAAGCAAUAUUACGGCGA | -0.386 ± 0.094 | -0.039 ± 0.11
17 | UGCUAGCAAUAUUACGGAUA | -1.44 ± 0.11 | -1.1 ± 0.13
18 | AGCGAGCAAUAUUACGCCAC | -1.84 ± 0.39 | 
19 | CUAGAGCAAUAUUACGACAG | 0.262 ± 0.087 | 0.734 ± 0.12
20 | GUACAGCAAUAUUACGUCAG | -4.26 ± 0.29 | -2.99 ± 0.26

Row | Sequence | self-splicing fitness (ln) (30 °C) | self-splicing fitness (ln) (37 °C)
21 | UAAUAGCAAUAUUACGAUAG | -2.06 ± 0.27 | -2.99 ± 0.38
22 | UCUUAGCAAUAUUACGGGUC | -3.28 ± 0.32 | -2.68 ± 0.41
23 | AUCAAGCAAUAUUACGCACC | -0.849 ± 0.26 | -0.581 ± 0.31
24 | UAGCAGCAAUAUUACGUUAG | -3.08 ± 0.12 | -1.34 ± 0.13
25 | CUAAAGCAAUAUUACGCAAG | -1.11 ± 0.089 | -0.574 ± 0.12
26 | CCGUAGCAAUAUUACGUGGA | -3.1 ± 0.32 | -2.84 ± 0.21
27 | ACAUAGCAAUAUUACGAAAA | -2.4 ± 0.25 | -3.31 ± 0.3
28 | GGUAAGCAAUAUUACGAAGC | -3.07 ± 0.23 | -0.664 ± 0.23
29 | GCGAAGCAAUAUUACGACGU | -2.69 ± 0.21 | -2.02 ± 0.2
30 | GGCCAGCAAUAUUACGCAGG |  | -2.78 ± 0.22
31 | AGCCAGCAAUAUUACGAUAA | -4.66 ± 0.46 | -2.89 ± 0.17
32 | UAUCAGCAAUAUUACGAGGU | -2.73 ± 0.28 | -3.78 ± 0.37
33 | AGCUAGCAAUAUUACGAAGC | -3.35 ± 0.22 | -2.43 ± 0.3
34 | AAGGAGCAAUAUUACGCCCU | -1.87 ± 0.35 | -1.91 ± 0.43
35 | CAAAAGCAAUAUUACGGGUA | -2.22 ± 0.13 | -2.12 ± 0.15
36 | UUAUAGCAAUAUUACGUGAG | -1.2 ± 0.087 | -0.672 ± 0.12
37 | UCGCAGCAAUAUUACGAGAG | -4.55 ± 0.36 | -2.39 ± 0.18
38 | UAUGAGCAAUAUUACGCGCC | -4.05 ± 0.42 | 
39 | UUGCAGCAAUAUUACGGAAC | -2.24 ± 0.32 | 
